{"source": "patent US20060210568A1", "about": "“Methods and compositions for cancer treatment” (priority 2003, published 2006)", "molecules": {"B1": {"name": "ADRP: 50-kDa adipose differentiation related protein, over-expressed in MCF-7 cells by transfection with mouse ADRP pcDNA3 construct (protein, UniProt P43883 2-425, looked up)", "Perilipin-2": "AAAVVDPQQSVVMRVANLPLVSSTYDLVSSAYVSTKDQYPYLRSVCEMAEKGVKTVTSAAMTSALPIIQKLEPQIAVANTYACKGLDRMEERLPILNQPTSEIVASARGAVTGAKDVVTTTMAGAKDSVASTVSGVVDKTKGAVTGSVERTKSVVNGSINTVLGMVQFMNSGVDNAITKSELLVDQYFPLTQEELEMEAKKVEGFDMVQKPSNYERLESLSTKLCSRAYHQALSRVKEAKQKSQETISQLHSTVHLIEFARKNMHSANQKIQGAQDKLYVSWVEWKRSIGYDDTDESHCVEHIESRTLAIARNLTQQLQTTCQTVLVNAQGLPQNIQDQAKHLGVMAGDIYSVFRNAASFKEVSDGVLTSSKGQLQKMKESLDEVMDYFVNNTPLNWLVGPFYPQSTEVNKASLKVQQSEVKAQ", "modifications": "expressed from pcDNA3", "notes": "50-kDa adipose differentiation related protein, over-expressed in MCF-7 cells by transfection with mouse ADRP pcDNA3 construct"}}, "assay_type_in_all_cases": "cell-based, human", "key": {"MCF-7 cells [1]": {"tested_on": "MCF-7 cells", "assay": "FACS analysis of apoptosis and G1 phase", "conditions": "ADRP-MCF-7 versus EV-MCF-7 cells", "text": "Increased of percentage of cells in apoptosis and in G1 phase is shown by FACS analysis of ADRP-MCF-7 cells and EV-MCF-7 cells."}, "bcl-2": {"tested_on": "bcl-2", "assay": "bcl-2 expression in ADRP MCF-7 versus control MCF-7 cells", "conditions": "ADRP overexpressing versus empty vector control cells, FIG. 5", "text": "This is shown by down-regulation of bcl-2 in ADRP MCF-7 cells when compared to control MCF-7 cells. […] In other words, ADRP overexpression sensitizes the cells to apoptotic stimuli."}, "[2]": {"tested_on": "beta casein expression in MCF-7 cells", "assay": "beta casein expression by RT-PCR as marker of breast cancer cell differentiation", "conditions": "versus control cells with no detectable level, FIG. 3A", "text": "We then explored whether growth inhibition of cells overexpressing ADRP was accompanied by stimulated differentiation of the cells. In order to investigate this possibility, we measured the expression of markers of differentiation such as beta casein in the ADRP expressing cells when compared to EV cells. Beta casein is routinely used as a marker of mammary epithelial cell differentiation. We show by RT-PCR that the ADRP overexpressing cells express high level of casein mRNA. In contrast, the control cells had no detectable level of the gene product (see FIG. 3A). In FIG. 3A, GAPDH (Glyceraldehyde-3-phosphate dehydrogenase) loading was used as an internal control for equal sample mRNA expression. […] Measurement of Beta casein expression as marker of breast cancer cell differentiation was by RT-PCR as described above."}, "MCF-7 cells [3]": {"tested_on": "MCF-7 cells", "assay": "Oil Red O staining of lipid droplets", "conditions": "ADRP overexpressing versus EV MCF-7 cells, FIG. 4B", "description": "This is also supported by the fact that ADRP overexpressing cells accumulated lipid droplets at a higher level (higher number of droplets per cells and higher number of cells having droplets than the empty vector control MCF-7 cells as shown in FIG. 4A and FIG. 4B. A 5-fold increase in lipid droplets accumulation was observed (FIG. 4B). Specifically, cells were plated at the concentration of 2×10^5 per 35-mm dish in 5% FBS DMEM/F12. After 48 h of incubation, cells were washed once with PBS and fixed in 4% formalin for 30 min. Oil Red O working solution was added to cover all the cells, and the cells were incubated at 37° C. for 1 h. The Working Solution was prepared by mixing 6 ml 0.5% Oil Red O in isopropanol with 4 ml H2O, and centrifuging at 4000 g for 10 min to remove sediments. The plates were washed with tap water twice. Cells were counterstained by Hematoxylin QS (Vector Laboratories, California) for 45 sec, and washed with tap water."}, "[4]": {"tested_on": "ADRP overexpressing cells (MCF7-C4)", "assay": "proliferation assay, ADRP overexpressing MCF-7 cells", "conditions": "serum containing medium, with or without hormones and growth factors, FIGS. 1 and 2", "description": "The vector used to over-express ADRP in MCF-7 cells is the ADRP-pcDNA3 vector described in Gao and Serrero, 1999. The G418 resistance gene was used as selectable marker. MCF-7 cells were transfected with the ADRP-pcDNA3 plasmid, using the lipofectamine method. Specifically, MCF-7 cells (WT) were plated onto 60-mm dish at the concentration of 2×10^5 cell per plate in 5% fetal bovine serum (FBS) in DMEM/F12 (1:1 mixture of Dulbecco's modified Eagle's medium and Ham' nutrient F12 medium) overnight before transfection. Cells were washed once with serum-free DMEM/F12 (without antibiotic). The lipofectamine method was used for the transfection. Specifically, 2 μg mouse ADRP pcDNA3 construct was used. Transfection was carried on according to manufacturer's recommendations, with 15 μl of lipofectamine and 5 hours of incubation. After transfection, the medium was replaced with 5% FBS DMEM/F12 and the cells were incubated overnight. G418 at the concentration of 800 μg/ml was added the day after for selection. Cells were selected with this medium for 3 weeks. Six clones were isolated and subjected to RT-PCR to determine the existence of the transfection construct. […] Cell numbers were counted by hemacytometer every two days. […]"}}, "note": "Entries after “also recorded” stand apart in the source; their conditions may differ.", "data": [{"molecule": "B1", "values": [{"measurement": "percentage of cells in apoptosis and in G1 phase", "setting": "MCF-7 cells [1]", "result": "Increased"}, {"measurement": "Bcl-2 expression", "setting": "bcl-2", "result": "dramatically decreased; also recorded: much lower level"}, {"measurement": "casein mRNA expression in ADRP overexpressing cells", "setting": "[2]", "result": "stimulation of casein expression; also recorded: high level"}, {"measurement": "increase in lipid droplets accumulation", "setting": "MCF-7 cells [3]", "result": "~5", "unit": "fold"}, {"measurement": "growth of cells over-expressing ADRP", "setting": "[4]", "result": "grow very slowly"}]}]}
